Measurements taken from doi:10.1101/2021.02.07.430159.

Target: GST-MLLE protein (MLLE domain of PABPC1)
Test: SPR

- Kd: 20 nM
Binder: SNLNPNAPEFHPGVPWKGLQ [super-PAM2 peptide]
